In patent US20190142860A1, “NUCLEIC ACID BASED TIA-1 INHIBITORS” (Aquinnah Pharmaceuticals, Inc., priority 2015, published 2019):

Key:
[1] = molecular target: Nucleolysin TIA-1 (endogenous mouse TIA1) (mouse) (UniProt P52912); assay: TIA1 IP-MS, WT1 cortex
[2] = molecular target: Nucleolysin TIA-1 (endogenous mouse TIA1) (mouse) (UniProt P52912); assay: TIA1 IP-MS, tau KO 3 cortex
[3] = molecular target: Nucleolysin TIA-1 (endogenous mouse TIA1) (mouse) (UniProt P52912); assay: TIA1 IP-MS, WT3 cortex
[4] = molecular target: Nucleolysin TIA-1 (endogenous mouse TIA1) (mouse) (UniProt P52912); assay: TIA1 IP-MS, WT2 cortex
[5] = molecular target: Nucleolysin TIA-1 (endogenous mouse TIA1) (mouse) (UniProt P52912); assay: TIA1 IP-MS, tau KO 2 cortex
[6] = molecular target: Nucleolysin TIA-1 (endogenous mouse TIA1) (mouse) (UniProt P52912); assay: TIA1 IP-MS, tau KO 1 cortex

UniProt P52912, sequence (P52912 whole entry): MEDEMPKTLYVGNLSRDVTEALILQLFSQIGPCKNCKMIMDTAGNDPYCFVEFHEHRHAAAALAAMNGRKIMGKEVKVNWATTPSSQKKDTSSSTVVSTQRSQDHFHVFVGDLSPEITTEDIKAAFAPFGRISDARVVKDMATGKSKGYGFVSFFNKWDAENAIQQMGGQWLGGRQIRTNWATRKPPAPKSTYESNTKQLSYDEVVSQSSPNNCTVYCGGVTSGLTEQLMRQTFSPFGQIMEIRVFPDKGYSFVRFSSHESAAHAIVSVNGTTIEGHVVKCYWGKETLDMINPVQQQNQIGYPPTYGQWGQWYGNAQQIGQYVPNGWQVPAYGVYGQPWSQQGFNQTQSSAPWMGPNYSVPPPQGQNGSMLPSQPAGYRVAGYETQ

total ion current (normalized to TIA1 = 1000) [1]	total ion current (normalized to TIA1 = 1000) [2]	total ion current (normalized to TIA1 = 1000) [3]	total ion current (normalized to TIA1 = 1000) [4]	total ion current (normalized to TIA1 = 1000) [5]	total ion current (normalized to TIA1 = 1000) [6]	Substance
0	0	83.7	108	67.8	0	Dual specificity mitogen-activated protein kinase kinase 1 (from UniProt P31938 1-393)
0	0	162	402	365	0	Glutamate dehydrogenase 1, mitochondrial (from UniProt P26443 54-558)
31.6	0	0	0	0	0	Glutathione S-transferase P 1 (from UniProt P19157 2-210)
3.01	0	0	0	0	18.8	Glycerol-3-phosphate dehydrogenase, mitochondrial (from UniProt Q64521 43-727)
0	0	68.5	0	75.3	0	Guanine deaminase (from UniProt Q9R111 1-454)
0	0	0	59.4	0	0	Guanine nucleotide-binding protein G(z) subunit alpha (from UniProt O70443 2-355)
34.6	0	48.5	374	69.2	26.7	Heterogeneous nuclear ribonucleoprotein R (from UniProt Q8VHM5 2-632)
0	0	138	186	155	0	Isocitrate dehydrogenase [NAD] subunit alpha, mitochondrial (from UniProt Q9D6R2 28-366)
0	0	36.3	62.9	75.8	0	Isoform 2 of ATP-dependent 6-phosphofructokinase, muscle type (from UniProt P47857 1-850)

Second part, the substance before the results:

Substance	total ion current (normalized to TIA1 = 1000) [1]	total ion current (normalized to TIA1 = 1000) [2]	total ion current (normalized to TIA1 = 1000) [3]	total ion current (normalized to TIA1 = 1000) [4]	total ion current (normalized to TIA1 = 1000) [5]	total ion current (normalized to TIA1 = 1000) [6]
Dihydropyrimidinase-related protein 3 (from UniProt Q62188 1-570)	0	0	14.7	192	96	0
Eukaryotic initiation factor 4A-I (from UniProt P60843 2-406)	0	0	76.1	150	121	0
Fructose-bisphosphate aldolase C (from UniProt P05063 2-363)	0	0	41.6	69.5	43.2	0
Glutathione S-transferase Mu 1 (from UniProt P10649 2-218)	0	0	57.4	286	91.1	0
Hemoglobin subunit alpha (from UniProt P01942 2-142)	0	0	0	69.1	0	0
Heterogeneous nuclear ribonucleoprotein U-like protein 2 (from UniProt Q00PI9 1-745)	11.1	0	0	53.3	17	11.7
High mobility group protein B1 (from UniProt P63158 1-215)	6.6	0	38	182	60.8	15.7
Histone H1.4 (from UniProt P43274 2-219)	0	0	78.1	56	55.4	0
Hypoxanthine-guanine phosphoribosyltransferase (from UniProt P00493 1-218)	0	0	0	21	54.1	0
Isocitrate dehydrogenase [NAD] subunit, mitochondrial (from UniProt Q91VA7 34-384)	0	0	0	110	29.9	0
Isoform 2 of 4-aminobutyrate aminotransferase, mitochondrial (from UniProt P61922 29-444)	0	0	79.4	272	112	0
Isoform 2 of AP-2 complex subunit beta (from UniProt Q9DBG3 2-951)	0	0	67.8	105	102	0
Isoform 2 of Alpha-adducin (from UniProt Q9QYC0 1-632)	0	0	0	121	0	0
Isoform 2 of Beta-adducin (from UniProt Q9QYB8 1-562)	0	0	0	346	32.6	0
Isoform 2 of C-terminal-binding protein 1 (from UniProt O88712 1-430)	0	0	49.3	65.7	26.6	0
Isoform 2 of Clathrin light chain B (from UniProt Q6IRU5 1-211)	3.53	0	0	0	0	0
Isoform 2 of Cytosol aminopeptidase (from UniProt Q9CPY7 1-488)	0	0	0	80.5	28.4	0
Isoform 2 of Focal adhesion kinase 1 (from UniProt P34152 2-1083)	0	0	84.3	0	130	0
Isoform 2 of Gelsolin (from UniProt P13020 1-731)	0	0	0	0	0	144
